Source: US20250019450A1

Tests used:
[1] = molecular target: human IL-12Rβ2-huFc-his (R&D system), biotinylated (human) (UniProt Q99665); assay: ELISA, periplasmic extract
[2] = molecular target: cyno IL-12RB2 with C-terminal HA tag, transiently expressed on HEK-293T cells (cyno); assay: FACS, periplasmic extract, HEK-293T
[3] = molecular target: human IL-12RB2 with C-terminal HA tag, transiently expressed on HEK-293T cells (human) (UniProt Q99665); assay: FACS, periplasmic extract, HEK-293T
human IL-12RB2 with C-terminal HA tag, transiently expressed on HEK-293T cells (human), sequence (Q99665 24-862): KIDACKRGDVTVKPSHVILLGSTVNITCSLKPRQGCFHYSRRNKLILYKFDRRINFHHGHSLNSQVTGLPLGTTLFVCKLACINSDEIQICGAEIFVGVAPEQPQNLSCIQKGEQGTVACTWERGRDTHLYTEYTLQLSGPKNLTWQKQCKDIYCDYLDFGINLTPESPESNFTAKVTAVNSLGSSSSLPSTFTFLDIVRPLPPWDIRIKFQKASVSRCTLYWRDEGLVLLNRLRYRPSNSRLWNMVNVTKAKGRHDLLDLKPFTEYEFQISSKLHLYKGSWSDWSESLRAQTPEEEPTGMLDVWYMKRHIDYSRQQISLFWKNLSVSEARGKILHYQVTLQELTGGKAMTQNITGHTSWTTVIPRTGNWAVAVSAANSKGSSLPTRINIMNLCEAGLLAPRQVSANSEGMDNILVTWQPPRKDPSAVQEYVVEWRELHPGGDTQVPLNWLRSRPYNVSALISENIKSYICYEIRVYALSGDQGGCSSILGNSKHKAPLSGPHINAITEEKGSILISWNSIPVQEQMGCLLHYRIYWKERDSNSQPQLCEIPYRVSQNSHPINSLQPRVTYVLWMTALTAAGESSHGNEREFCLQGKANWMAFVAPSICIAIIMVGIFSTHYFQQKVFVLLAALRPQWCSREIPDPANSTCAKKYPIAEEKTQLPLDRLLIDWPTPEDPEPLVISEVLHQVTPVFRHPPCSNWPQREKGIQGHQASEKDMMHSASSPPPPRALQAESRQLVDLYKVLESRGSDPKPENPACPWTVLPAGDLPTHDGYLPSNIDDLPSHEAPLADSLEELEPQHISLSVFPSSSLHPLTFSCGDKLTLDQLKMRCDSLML

human IL-12Rβ2-huFc-his (R&D system), biotinylated (human), sequence (Q99665 24-622 limits assumed): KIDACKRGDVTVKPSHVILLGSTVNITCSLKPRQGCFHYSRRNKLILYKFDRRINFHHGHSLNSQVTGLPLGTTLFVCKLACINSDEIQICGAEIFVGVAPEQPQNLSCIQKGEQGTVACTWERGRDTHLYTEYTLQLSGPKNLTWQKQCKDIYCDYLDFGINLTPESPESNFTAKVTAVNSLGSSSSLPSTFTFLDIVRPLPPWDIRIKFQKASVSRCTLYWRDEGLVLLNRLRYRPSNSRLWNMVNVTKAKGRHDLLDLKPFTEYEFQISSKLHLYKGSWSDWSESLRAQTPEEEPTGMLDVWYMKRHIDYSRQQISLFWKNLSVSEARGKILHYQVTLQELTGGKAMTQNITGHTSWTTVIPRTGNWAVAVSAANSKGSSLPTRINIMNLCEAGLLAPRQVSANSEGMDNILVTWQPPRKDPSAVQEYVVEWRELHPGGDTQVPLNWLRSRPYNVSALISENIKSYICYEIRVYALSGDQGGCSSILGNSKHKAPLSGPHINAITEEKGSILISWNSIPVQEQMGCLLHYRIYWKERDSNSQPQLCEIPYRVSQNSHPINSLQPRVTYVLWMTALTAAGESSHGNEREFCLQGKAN
cyno IL-12RB2 with C-terminal HA tag, transiently expressed on HEK-293T cells (cyno), sequence (chain, as listed by the source): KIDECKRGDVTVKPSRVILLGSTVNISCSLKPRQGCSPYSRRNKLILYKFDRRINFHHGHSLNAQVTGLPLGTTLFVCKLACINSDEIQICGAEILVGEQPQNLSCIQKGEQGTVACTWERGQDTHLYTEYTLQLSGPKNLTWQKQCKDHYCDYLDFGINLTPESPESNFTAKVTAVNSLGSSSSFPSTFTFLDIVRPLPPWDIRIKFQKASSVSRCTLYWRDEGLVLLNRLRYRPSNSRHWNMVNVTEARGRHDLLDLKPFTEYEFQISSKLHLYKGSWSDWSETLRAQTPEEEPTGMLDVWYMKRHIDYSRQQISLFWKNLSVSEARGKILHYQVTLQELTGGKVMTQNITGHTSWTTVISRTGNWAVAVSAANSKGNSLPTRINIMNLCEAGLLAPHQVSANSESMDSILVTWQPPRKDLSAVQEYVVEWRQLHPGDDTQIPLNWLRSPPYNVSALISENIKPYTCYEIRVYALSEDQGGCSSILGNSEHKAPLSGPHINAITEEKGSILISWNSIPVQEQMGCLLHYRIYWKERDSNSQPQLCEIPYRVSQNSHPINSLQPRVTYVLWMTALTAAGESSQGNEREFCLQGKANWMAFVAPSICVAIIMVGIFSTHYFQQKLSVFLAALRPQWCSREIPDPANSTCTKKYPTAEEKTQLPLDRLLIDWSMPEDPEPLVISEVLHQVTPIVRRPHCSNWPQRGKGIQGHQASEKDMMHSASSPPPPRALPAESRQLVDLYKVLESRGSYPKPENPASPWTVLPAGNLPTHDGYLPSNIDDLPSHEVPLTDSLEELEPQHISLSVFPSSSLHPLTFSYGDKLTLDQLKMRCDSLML

Binder	OD450 nm [1]	FOB [2] [fold]	FOB [3] [fold]
VHH229B2 (VHH) VHH: QVQLVESGGGLVQAGGSLRLSCAASGRTFSSYAMGWFRQAPGKEREFVSAISWNGGSRYYVESVEGRFTISRDNAKNTVYLQMNSLKPEDTAVYYCAASRIYTNYVARSYEYDDWGQGTQVTVSS	0.138		
VHH230B2 (VHH) VHH: QVQLVESGGGLVQAGGSLRLSCAASGRTFSSYAMGWFRQAPGKEREFVSAISWSGLSTYYVESVQGRFTISRDNAKNTVYLQMNSLKPEDTAVYYCAASRIYTNYVARSYEYDDWGQGTQVTVSS		1.66	
VHH277B2 (VHH) VHH: QVQLVESGGGLVQLGDSLRLSCAASGRGFSSWTMAWFRQALGKRREFVAAITATGARTCSAESEGRFTISRDNAKNMVFLQMNSLKAEDTAVYYCAATEIAGWDPGMGDKYPYWGQGTQVTVSS	0.137		
VHH216B2 (VHH) VHH: QVQLVESGGGLVQPGGSLRLSCATSEHTFGTYRMGWFRQAPGKEREFVAGISWTGQTTYYAASVKGRFAISKDNAKNTVYLQMNTLKSDDTAVYYCAVETNNLGRWDRPSEYDYWGQGTQVTVSS	0.586		0.99

Further lines, results first:

OD450 nm [1]	FOB [2] [fold]	FOB [3] [fold]	Binder
0.139		1.63	VHH241B2 (VHH) VHH: QVQLVESGGGLVQLGDSLRLSCAASGRGFSSWTMAWFRQALGKRREFVAAITATGARTCSAESEGRFTISRDNAKNMVFLQMNSLKAEDTAVYYCAATGIASWDPGMADKYTYWGQGTQVTVSS
0.227			VHH211B2 (VHH) VHH: QVQLVESGGGLVQAGNSLRLSCAASGRTFSSYVVGWFRQAPGKEREFVGRISWSGARTYYADSVKGRFTISRDNAKNTVYLQMNSLKPEDTAVYYCAADLKWEVLLSEHFEYWGQGTQVTVSS
		1.54	VHH219B2 (VHH) VHH: QVQLEESGGGLVQAGGSLRLSCAASGRTFSSYVVGWFRQAPGKEREFVGRISWSGARTYYADSVEGRFTISRDNAKNTVYLQMNSLKPEDTAVYYCAADLKWEVLLSEHYEYWGQGTQVTVSS
	2		VHH356B2 (VHH) VHH: QLQLVESGGGLVQPGGSLRLSCAASGSIFSINAMGWYRQAPGKQRELVAAITSGGSTAYADSVKGRFTISRDNAKNTVYLQMNSLKPEDTAVYYCNADRDPITSWYVRGDYWGQGTQVTVSS
		1.98	VHH93B2 (VHH) VHH: QVQLVESGGGLVQPGGSLRLSCAASGFTFEPYDMSWFRQAPGKGPEWVSAIDKGGGAGATYYADSVKGRFTISRDNAKKTLYLQMKSLKPEDTAVYYCAITAGPYSDSTPRVAYRGEGTQVTVSS
